Positions count from the first letter of the chain named. Names may count otherwise.
T1: GDF11 (Homo sapiens, UniProt O95390)
T1 sequence (O95390 299-407): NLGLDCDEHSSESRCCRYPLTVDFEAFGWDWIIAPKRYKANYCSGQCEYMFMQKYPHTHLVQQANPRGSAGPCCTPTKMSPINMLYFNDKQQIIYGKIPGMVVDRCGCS

T2: GDF8 (Homo sapiens, UniProt O14793)
T2 sequence (O14793 267-375): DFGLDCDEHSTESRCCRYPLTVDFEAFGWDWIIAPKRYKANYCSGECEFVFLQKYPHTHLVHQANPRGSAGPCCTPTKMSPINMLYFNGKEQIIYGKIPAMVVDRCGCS

T3: activin A (Homo sapiens, UniProt P08476)
T3 sequence (P08476 311-426): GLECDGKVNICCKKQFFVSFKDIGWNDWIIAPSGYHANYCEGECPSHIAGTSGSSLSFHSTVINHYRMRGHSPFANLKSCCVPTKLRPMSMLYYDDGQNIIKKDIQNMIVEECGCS

T4: activin B (Homo sapiens, UniProt P09529)
T4 sequence (P09529 293-407): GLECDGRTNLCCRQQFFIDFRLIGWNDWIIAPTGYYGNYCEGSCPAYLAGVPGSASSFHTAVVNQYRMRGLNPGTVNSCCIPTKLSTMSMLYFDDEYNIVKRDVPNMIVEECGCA

B1: A64 20-134: ActRIIB-Fc, amino acids 20-134 of SEQ ID NO: 1 with alanine at position 64 (protein)
chain: GRGEAETRECIYYNANWELERTNQSGLERCEGEQDKRLHCYASWANSSGTIELVKKGCWLDDFNCYDRQECVATEENPQVYFCCCEGNFCNERFTHLPEAGGPEVTYEPPPTAPT
modifications: Fc fusion partner without entry
B2: ActRIIB(R64K 20-129)-hFc: ActRIIB(20-129)-hFc variant with R64K mutation (protein)
chain: GRGEAETRECIYYNANWELERTNQSGLERCEGEQDKRLHCYASWKNSSGTIELVKKGCWLDDFNCYDRQECVATEENPQVYFCCCEGNFCNERFTHLPEAGGPEVTYEPPGGGTHTCPPCPAPELLGGPSVFLFPPKPKDTLMISRTPEVTCVVVDVSHEDPEVKFNWYVDGVEVHNAKTKPREEQYNSTYRVVSVLTVLHQDWLNGKEYKCKVSNKALPVPIEKTISKAKGQPREPQVYTLPPSREEMTKNQVSLTCLVKGFYPSDIAVEWESNGQPENNYKTTPPVLDSDGSFFLYSKLTVDKSRWQQGNVFSCSVMHEALHNHYTQKSLSLSPGK
B3: ActRIIB(20-134)-hFc: extracellular domain of human ActRIIB (20-134, R64) fused to a human Fc domain with a minimal linker (SEQ ID NO: 40) (protein)
chain: GRGEAETRECIYYNANWELERTNQSGLERCEGEQDKRLHCYASWRNSSGTIELVKKGCWLDDFNCYDRQECVATEENPQVYFCCCEGNFCNERFTHLPEAGGPEVTYEPPPTAPTGGGTHTCPPCPAPELLGGPSVFLFPPKPKDTLMISRTPEVTCVVVDVSHEDPEVKFNWYVDGVEVHNAKTKPREEQYNSTYRVVSVLTVLHQDWLNGKEYKCKVSNKALPVPIEKTISKAKGQPREPQVYTLPPSREEMTKNQVSLTCLVKGFYPSDIAVEWESNGQPENNYKTTPPVLDSDGSFFLYSKLTVDKSRWQQGNVFSCSVMHEALHNHYTQKSLSLSPGK
B4: ActRIIB(L79D 20-134)-hFc: GDF trap: ActRIIB amino acids 20-134 with L79D substitution fused to human Fc (SEQ ID NO: 46) (protein)
chain: B3 chain with L60D
B5: ActRIIB(P129S, P130R 20-134)-hFc: ActRIIB(20-134)-hFc variant with P129S and P130R mutations (protein)
chain: B3 chain with P110S, P111R
B6: ActRIIB(L79E 20-134)-hFc: GDF trap form with a glutamate rather than an aspartate at position 79, human Fc fusion (protein)
chain: B3 chain with L60E
B7: ActRIIB(R64K 20-134)-hFc: ActRIIB(20-134)-hFc variant with R64K mutation (protein)
chain: B3 chain with R45K
B8: ActRIIB(A24N 20-134)-hFc: ActRIIB(20-134)-hFc variant with A24N mutation (protein)
chain: B3 chain with A5N
B9: ALK4-Fc homodimer: homodimer complex of ALK4-Fc fusion polypeptide (protein)
chain: SGPRGVQALLCACTSCLQANYTCETDGACMVSIFNLDGMEHHVRTCIPKVELVPAGKPFYCLSSEDLRNTHCCYTDYCNRIDLRVPSGHLKEPEHPSMWGPVE
modifications: left off: a dimerising Fc or GST
notes: homodimer complex of ALK4-Fc fusion polypeptide

What was measured:
GDF11 [1] = target: T1, GDF11; experiment: ActRIIB-Fc affinity for ligand (description); type: binding; conditions: ascertained by Applicants
activin = experiment: ActRIIB-Fc affinity for ligand (description); type: binding; conditions: ascertained by Applicants
GDF8 [2] = target: T2, GDF8; experiment: Biacore assay, receptor captured with anti-hFc antibody; type: binding
Description: (§1) Binding of certain ActRIIB-Fc proteins and GDF traps to ligands was tested in a Biacore assay.
(§2) The ActRIIB-Fc variants or wild-type protein were captured onto the system using an anti-hFc antibody. Ligands were injected and flowed over the captured receptor proteins.

activin A [3] = target: T3, activin A; experiment: as above; type: binding
Description: as §1, §2

activin A [4] = target: T3, activin A; experiment: A-204 reporter gene assay, pGL3(CAGA)12 luciferase; type: cell-based; conditions: A-204 reporter gene assay
Source text: An A-204 reporter gene assay was used to evaluate the effects of ActRIIB-Fc proteins and GDF traps on signaling by GDF-11 and activin A. Cell line: human rhabdomyosarcoma (derived from muscle). Reporter vector: pGL3(CAGA)12 (described in Dennler et al, 1998, EMBO 17: 3091-3100). The CAGA12 motif is present in TGF-beta responsive genes (e.g., PAI-1 gene), so this vector is of general use for factors signaling through SMAD2 and 3.
Day 1: Split A-204 cells into 48-well plate.
Day 2: A-204 cells transfected with 10 ug pGL3(CAGA)12 or pGL3(CAGA)12(10 ug)+pRLCMV (1 μg) and Fugene.
Day 3: Add factors (diluted into medium+0.1% BSA). Inhibitors need to be preincubated with factors for 1 hr before adding to cells. Six hrs later, cells were rinsed with PBS and lysed.
This is followed by a luciferase assay.
(§3) In addition, an A-204 Reporter Gene Assay was used to evaluate the effects of ALK4-Fc:ActRIIB-Fc heterodimer and ActRIIB-Fc:ActRIIB-Fc homodimer on signaling by activin A, activin B, GDF11, GDF8, BMP10, and BMP9. Cell line: Human Rhabdomyosarcoma (derived from muscle). Reporter vector: pGL3(CAGA)12 (as described in Dennler et al, 1998, EMBO 17: 3091-3100). The CAGA12 motif is present in TGFβ responsive genes (PAI-1 gene), so this vector is of general use for factors signaling through Smad2 and 3. An exemplary A-204 Reporter Gene Assay is outlined below. • Day 1: Split A-204 cells into 48-well plate. • Day 2: A-204 cells transfected with 10 ug pGL3(CAGA)12 or pGL3(CAGA)12(10 ug)+pRLCMV (1 ug) and Fugene. • Day 3: Add factors (diluted into medium+0.1% BSA). Inhibitors need to be pre-incubated with Factors for about one hr before adding to cells. About six hrs later, cells are rinsed with PBS and then lysed.
(§4) Following the above steps, a Luciferase assay was performed.

GDF8 [5] = target: T2, GDF8; experiment: A-204 reporter gene assay, pGL3(CAGA)12 luciferase; type: cell-based; design: host or cells: exogenous factor added to A-204 cells (human rhabdomyosarcoma); conditions: A-204 reporter gene assay
Source text: (§5) Day 1: Split A-204 cells into 48-well plate. […]
as §3, §4

GDF11 [6] = target: T1, GDF11; experiment: A-204 reporter gene assay, pGL3(CAGA)12 luciferase; type: cell-based; conditions: A-204 reporter gene assay
Source text: as §5, §3, §4

GDF11 [7] = target: T1, GDF11; experiment: Biacore assay, receptor captured with anti-hFc antibody; type: binding
Description: as §1, §2

GDF11 [8] = target: T1, GDF11; experiment: Biacore-based binding assay, receptor captured with anti-Fc antibody
Description: (§6) A Biacore™-based binding assay was used to compare ligand binding selectivity of the ALK4-Fc:ActRIIB-Fc heterodimeric complex described above with that of ActRIIB-Fc and ALK4-Fc homodimer complexes. The ALK4-Fc:ActRIIB-Fc heterodimer, ActRIIB-Fc homodimer, and ALK4-Fc homodimer were independently captured onto the system using an anti-Fc antibody. Ligands were injected and allowed to flow over the captured receptor protein. Results are summarized in the table below, in which ligand off-rates (kd) most indicative of effective ligand traps are denoted in bold font.

GDF8 [9] = target: T2, GDF8; experiment: as above
Description: as §6

activin B = target: T4, activin B; experiment: as above
Description: as §6

activin A [10] = target: T3, activin A; experiment: as above
Description: as §6

Row | Molecule | Koff, GDF8 (GDF8 [2]) | Koff, Activin A (activin A [3]) | Kon, Activin A (activin A [3]) | Koff, GDF11 (GDF11 [7]) | further results
1 | B1 |  |  |  |  | affinity for GDF11 (GDF11 [1]): relatively low affinity; affinity for activin (activin): relatively low affinity
2 | B2 | 0.000209 s⁻¹ | 0.000628 s⁻¹ | 7.46e+06 M⁻¹ s⁻¹ |  | 
3 | B3 | 3.45e-05 s⁻¹ | 0.000159 s⁻¹ | 5.94e+06 M⁻¹ s⁻¹ | 0.000113 s⁻¹ | inhibition of activin A activity (activin A [4]): potent inhibitor; affinity for GDF11 (GDF11 [1]): low nanomolar to high picomolar range; inhibition of GDF-8 activity (GDF8 [5]): potent inhibitor; inhibition of GDF-11 activity (GDF11 [6]): potent inhibitor; affinity for activin (activin): low nanomolar to high picomolar range
4 | B4 | 0.00083 s⁻¹ |  |  | 0.000439 s⁻¹ | KD, Activin A (activin A [3]): Low binding
5 | B5 | 0.00018 s⁻¹ | 0.000417 s⁻¹ | 5.02e+06 M⁻¹ s⁻¹ |  | 
6 | B6 | 0.0009 s⁻¹ |  |  | 0.000274 s⁻¹ | KD, Activin A (activin A [3]): Low binding
7 | B7 | 4.71e-05 s⁻¹ | 0.000325 s⁻¹ | 6.82e+06 M⁻¹ s⁻¹ | 2.41e-05 s⁻¹ | 
8 | B8 |  | 0.000346 s⁻¹ | 3.34e+06 M⁻¹ s⁻¹ | 6.35e-05 s⁻¹ | 
9 | B9 |  |  |  |  | ka, GDF11 (GDF11 [8]): 4.8e+06 M⁻¹ s⁻¹; kd, GDF11 (GDF11 [8]): 0.0048 s⁻¹; ka, GDF8 (GDF8 [9]): 130000 M⁻¹ s⁻¹; kd, GDF8 (GDF8 [9]): 0.0019 s⁻¹; KD, Activin B (activin B): No binding; ka, Activin A (activin A [10]): 580000 M⁻¹ s⁻¹; kd, Activin A (activin A [10]): 0.012 s⁻¹

— patent US10973880B2, “Compositions and methods for treating pulmonary hypertension” (Acceleron Pharma Inc., priority 2016, dated 2021)
